{"source": "paper PMC5366289", "about": "(Biochemistry, 2016)", "key": {"[1]": {"assay": "Far-UV circular dichroism, helical content of T-domain peptides", "assay_type": "physicochemical", "details": "for secondary structure, in words: far-UV CD, 50 mM sodium phosphate; for no. of residues, helix: from helical content by far-UV CD, DichroWeb, tags assumed unordered; for no. of residues, unordered: total number in peptide excluding tags minus residues in helices"}, "[2]": {"molecular_target": "TolC (Escherichia coli, UniProt P02930)", "details": "for occlusion of TolC channels (Figure 3 legend): 2 μg/mL both sides, 50 mV, 0.1 M KCl, 5 mM Tris-HCl pH 7.5"}, "[3]": {"assay": "Thermal melting followed by CD at 222 nm", "assay_type": "physicochemical", "details": "CD 222 nm, 0.5 °C/min, 1 cm cuvette, pH 7.0"}, "[4]": {"details": "reference for disordered protein in CD222/CD208 plot; cited from earlier work"}, "[5]": {"tested_on": "TolC trimer", "assay": "Co-elution of T-domain peptides with TolC on Superdex 200 size-exclusion column", "assay_type": "binding, Escherichia coli", "details": "TolC:peptide 1:2, Superdex 200; peak shift and SDS–PAGE"}, "[6]": {"molecular_target": "T1, TolC trimer (E. coli, UniProt P02930 23-493)", "T1 sequence (looked up)": "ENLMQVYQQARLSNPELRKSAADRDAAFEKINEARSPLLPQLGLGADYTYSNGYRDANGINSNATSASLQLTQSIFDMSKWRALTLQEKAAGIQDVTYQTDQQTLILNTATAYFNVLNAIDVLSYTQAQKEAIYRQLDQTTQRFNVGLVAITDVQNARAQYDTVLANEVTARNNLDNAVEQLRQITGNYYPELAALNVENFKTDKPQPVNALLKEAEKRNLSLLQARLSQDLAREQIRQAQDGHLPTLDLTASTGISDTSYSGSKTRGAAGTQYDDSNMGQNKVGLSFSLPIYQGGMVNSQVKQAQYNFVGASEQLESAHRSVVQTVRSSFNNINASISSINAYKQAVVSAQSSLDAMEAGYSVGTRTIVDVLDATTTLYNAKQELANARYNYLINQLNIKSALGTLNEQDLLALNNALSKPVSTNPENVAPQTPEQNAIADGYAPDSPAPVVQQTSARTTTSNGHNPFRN", "assay": "occlusion of TolC ion channels in planar bilayer lipid membranes"}, "[7]": {"molecular_target": "T1, TolC trimer", "assay": "SEC"}, "[8]": {"molecular_target": "T1, TolC trimer", "assay": "precipitation upon mixing"}, "[9]": {"molecular_target": "T1, TolC trimer", "assay": "SEC", "remark": "listed apart in the source"}}, "note": "Like-named read-outs stand apart in the source and are kept apart here."}
{"molecule": "1–40 ^c: colicin E1 T-domain peptide, residues 1–40 (METAVAYYKDGVPYDDKGQVIITLLNGTPDGSGSGGGGGK; UniProt P02978 1-40, looked up, fragment)", "values": [{"measurement": "secondary structure, in words", "setting": "[1]", "value": "predominately disordered"}, {"measurement": "no. of residues, helix", "setting": "[1]", "value": 0, "unit": "residues"}, {"measurement": "no. of residues, unordered", "setting": "[1]", "value": 40, "unit": "residues"}]}
{"molecule": "81–140 ^b: colicin E1 T-domain peptide, residues 81–140 (AKAKANRDALTQRLKDIVNEALRHNASRTPSATELAHANNAAMQAEDERLRLAKAEEKAR; UniProt P02978 81-140, looked up, fragment)", "values": [{"measurement": "no. of residues, unordered", "setting": "[1]", "value": 25, "unit": "residues"}]}
{"molecule": "100–140 ^b: colicin E1 T-domain peptide, residues 100–140 (EALRHNASRTPSATELAHANNAAMQAEDERLRLAKAEEKAR; UniProt P02978 100-140, looked up, fragment)", "values": [{"measurement": "no. of residues, unordered", "setting": "[1]", "value": 15, "unit": "residues"}, {"measurement": "occlusion of TolC channels (Figure 3 legend)", "setting": "[2]", "value": "Occlusion of TolC channels"}, {"measurement": "effect on transmembrane current through TolC channels", "setting": "[2]; 2 μg/mL on both sides of BLM", "value": "significant and irreversible decrease in transmembrane current"}]}
{"molecule": "139–190 ^b: colicin E1 T-domain peptide, residues 139–190 (ARKEAEAAEKAFQEAEQRRKEIEREKAETERQLKLAEAEEKRLAALSEEAKA; UniProt P02978 139-190, looked up, fragment)", "values": [{"measurement": "no. of residues, unordered", "setting": "[1]", "value": 7, "unit": "residues"}]}
{"molecule": "141–190 ^c: colicin E1 T-domain peptide, residues 141–190 (KEAEAAEKAFQEAEQRRKEIEREKAETERQLKLAEAEEKRLAALSEEAKA)", "values": [{"measurement": "no. of residues, unordered", "setting": "[1]", "value": 5, "unit": "residues"}, {"measurement": "cooperativity of thermal melting", "setting": "[3]", "value": "not cooperative"}]}
{"molecule": "α-synuclein", "values": [{"measurement": "helical content", "setting": "[4]", "value": 0, "unit": "%"}]}
{"molecule": "41–140 ^b: colicin E1 T-domain peptide, residues 41–140 (peptide, UniProt P02978 41-140, looked up, fragment) GGSKSESSAAIHATAKWSTAQLKKTQAEQAARAKAAAEAQAKAKANRDALTQRLKDIVNEALRHNASRTPSATELAHANNAAMQAEDERLRLAKAEEKAR", "values": [{"measurement": "no. of residues, helix", "setting": "[1]", "value": "65 ± 5", "unit": "residues"}, {"measurement": "no. of residues, unordered", "setting": "[1]", "value": 35, "unit": "residues"}]}
{"molecule": "81–141 ^c: colicin E1 T-domain peptide, residues 81–141 (peptide, UniProt P02978 81-141, looked up, fragment) AKAKANRDALTQRLKDIVNEALRHNASRTPSATELAHANNAAMQAEDERLRLAKAEEKARK", "values": [{"measurement": "no. of residues, unordered", "setting": "[1]", "value": 44, "unit": "residues"}]}
{"molecule": "100–190 ^b: colicin E1 T-domain peptide, residues 100–190 (peptide, UniProt P02978 100-190, looked up, fragment) EALRHNASRTPSATELAHANNAAMQAEDERLRLAKAEEKARKEAEAAEKAFQEAEQRRKEIEREKAETERQLKLAEAEEKRLAALSEEAKA", "values": [{"measurement": "no. of residues, unordered", "setting": "[1]", "value": 12, "unit": "residues"}, {"measurement": "cooperativity of thermal melting", "setting": "[3]", "value": "not cooperative"}]}
{"molecule": "1–81 ^c: colicin E1 T-domain peptide, residues 1–81 (peptide, UniProt P02978 1-81, looked up, fragment) METAVAYYKDGVPYDDKGQVIITLLNGTPDGSGSGGGGGKGGSKSESSAAIHATAKWSTAQLKKTQAEQAARAKAAAEAQA", "values": [{"measurement": "secondary structure, in words", "setting": "[1]", "value": "low helical content"}, {"measurement": "secondary structure, in words", "setting": "[1]; listed as T1–81", "value": "predominately disordered"}, {"measurement": "no. of residues, helix", "setting": "[1]", "value": "13 ± 2", "unit": "residues"}, {"measurement": "no. of residues, unordered", "setting": "[1]", "value": "~70", "unit": "residues"}]}
{"molecule": "colicin E1 T-domain peptide T57–140 (domain or fragment) WSTAQLKKTQAEQAARAKAAAEAQAKAKANRDALTQRLKDIVNEALRHNASRTPSATELAHANNAAMQAEDERLRLAKAEEKAR", "values": [{"measurement": "co-elution / interaction with TolC, in words", "setting": "[5]", "value": "severe protein precipitation"}, {"measurement": "no. of residues, helix", "setting": "[1]", "value": "54 ± 4", "unit": "residues"}, {"measurement": "no. of residues, unordered", "setting": "[1]", "value": 30, "unit": "residues"}, {"measurement": "concentration at which TolC channels were efficiently occluded", "setting": "[2]; I = 0.1 M, pH 7.5", "value": "≥ 0.2", "unit": "µM"}, {"measurement": "concentration at which TolC channels were not occluded", "setting": "[2]; I = 0.1 M, pH 7.5", "value": 40, "unit": "nM"}, {"measurement": "Kd", "setting": "[6]", "value": "~100", "unit": "nM"}]}
{"molecule": "colicin E1 T-domain peptide T1–140 (domain or fragment, UniProt P02978 1-140, looked up) METAVAYYKDGVPYDDKGQVIITLLNGTPDGSGSGGGGGKGGSKSESSAAIHATAKWSTAQLKKTQAEQAARAKAAAEAQAKAKANRDALTQRLKDIVNEALRHNASRTPSATELAHANNAAMQAEDERLRLAKAEEKAR", "values": [{"measurement": "binding result", "setting": "[7]", "value": "binds"}]}
{"molecule": "colicin E3 peptide T1–83: naturally disordered T1–83 peptide of colicin E3 used for zero helical content (peptide, UniProt P00646 1-83, looked up, fragment) MSGGDGRGHNTGAHSTSGNINGGPTGLGVGGGASDGSGWSSENNPWGGGSGSGIHWGGGSGHGNGGGNGNSGGGSGTGGNLSA", "values": [{"measurement": "helical content", "setting": "[1]; reference for disordered protein in CD222/CD208 plot", "value": 0, "unit": "%"}]}
{"molecule": "colicin E1 T-domain peptide T57–120 (domain or fragment, UniProt P02978 57-120, looked up) WSTAQLKKTQAEQAARAKAAAEAQAKAKANRDALTQRLKDIVNEALRHNASRTPSATELAHANN", "values": [{"measurement": "co-elution / interaction with TolC, in words", "setting": "[5]", "value": "severe protein precipitation"}, {"measurement": "no. of residues, helix", "setting": "[1]", "value": "44 ± 4", "unit": "residues"}, {"measurement": "no. of residues, unordered", "setting": "[1]", "value": 20, "unit": "residues"}, {"measurement": "binding result", "setting": "[8]", "value": "binds"}]}
{"molecule": "41–120 ^b: colicin E1 T-domain peptide, residues 41–120 (peptide, UniProt P02978 41-120, looked up, fragment) GGSKSESSAAIHATAKWSTAQLKKTQAEQAARAKAAAEAQAKAKANRDALTQRLKDIVNEALRHNASRTPSATELAHANN", "values": [{"measurement": "no. of residues, helix", "setting": "[1]", "value": "29 ± 2", "unit": "residues"}, {"measurement": "no. of residues, unordered", "setting": "[1]", "value": 51, "unit": "residues"}]}
{"molecule": "colicin E1 T-domain peptide T57–190 (domain or fragment) WSTAQLKKTQAEQAARAKAAAEAQAKAKANRDALTQRLKDIVNEALRHNASRTPSATELAHANNAAMQAEDERLRLAKAEEKARKEAEAAEKAFQEAEQRRKEIEREKAETERQLKLAEAEEKRLAALSEEAKA", "values": [{"measurement": "binding result", "setting": "[9]", "value": "binds"}]}
{"molecule": "1–100 ^b: colicin E1 T-domain peptide, residues 1–100 (peptide) METAVAYYKDGVPYDDKGQVIITLLNGTPDGSGSGGGGGKGGSKSESSAAIHATAKWSTAQLKKTQAEQAARAKAAAEAQAKAKANRDALTQRLKDIVNE", "values": [{"measurement": "no. of residues, helix", "setting": "[1]", "value": "30 ± 4", "unit": "residues"}, {"measurement": "no. of residues, unordered", "setting": "[1]", "value": "~70", "unit": "residues"}, {"measurement": "increase in helical residues on lengthening the peptide", "setting": "[1]; versus next shorter peptide (1–81, 1–100, 1–120, 1–140, 1–190 series)", "value": 17, "unit": "residues"}, {"measurement": "occlusion of TolC channels (Figure 3 legend)", "setting": "[2]", "value": "Lack of TolC occlusion"}, {"measurement": "effect on transmembrane current through TolC channels", "setting": "[2]; 10 μg/mL", "value": "did not decrease the transmembrane current"}]}
{"molecule": "colicin E1 T-domain peptide T1–120 (domain or fragment, UniProt P02978 1-120, looked up) METAVAYYKDGVPYDDKGQVIITLLNGTPDGSGSGGGGGKGGSKSESSAAIHATAKWSTAQLKKTQAEQAARAKAAAEAQAKAKANRDALTQRLKDIVNEALRHNASRTPSATELAHANN", "values": [{"measurement": "co-elution / interaction with TolC, in words", "setting": "[5]", "value": "Co-elution was detected"}, {"measurement": "no. of residues, helix", "setting": "[1]", "value": "46 ± 12", "unit": "residues"}, {"measurement": "no. of residues, unordered", "setting": "[1]", "value": 74, "unit": "residues"}, {"measurement": "binding result", "setting": "[7]", "value": "binds"}]}
